Consider 102 substances from the supplement of paper PMC12042874.

This data set can be described thus: amyloid nucleation score (Sup35N fusion, yeast selection) (log enrichment); library NNK1; higher = more nucleation; inactive = no reads after selection. In a few lines:
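The nucleation score, computed with DiMSum, is the log enrichment of output over input reads, centred on the mode score of non-aggregating sequences. Sequences with under 100 input reads were dropped. Reads were generated by Illumina sequencing of plasmid inserts from psi-negative yeast with Sup35N fused to peptides of 20 random codons, induced with 100 μM copper sulfate for 24 hours and grown 7 days at 30°C on medium lacking adenine and uracil.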

± gives the uncertainty stated by the source.

As for SFFGFMVMTSRDDRFRLQ, the amyloid nucleation score worked out at 3.04 ± 0.085.

For HVSLVHLRYCRICSLLSMWG, the amyloid nucleation score was found to be 2.77 ± 0.12.

The substance TVFFCNWVEPYDFNICR came in with an amyloid nucleation score of 6.763 ± 0.059.

Consider SWTTARLNRSRSIFKNLRQE, for which the amyloid nucleation score was 0.028 ± 0.46.

Substance YMYQIG displayed an amyloid nucleation score of -0.691 ± 1.7.

Regarding KGFFNAITGDKIPRPSRDRR, the amyloid nucleation score amounted to 0.174 ± 0.48.

MVVVVRTVLQVMRGR came in with an amyloid nucleation score of 0.189 ± 0.76.

As for TRVFSCDACRKN, the amyloid nucleation score result is “inactive”.

YYFILYGSVNQHRTSIFRAR had an amyloid nucleation score of 5.08 ± 0.059.

Substance LGYVIYFVFWRRHSFSYSAC registered an amyloid nucleation score of -0.407 ± 0.31.

FVLCFFLACGITRNGMPCMV had an amyloid nucleation score of 1.26 ± 0.76.

SVWDERIPGGYSPIRVCPSW yielded an amyloid nucleation score of -0.337 ± 0.74.

The substance FLVLND gave an amyloid nucleation score of 0.273 ± 0.2.

For the substance VFSFYNRNLLILNISLYGYC, the amyloid nucleation score is 5.89 ± 0.085.

With RDIRVHATDLNENNCVAHCR, the amyloid nucleation score is -0.356 ± 0.32.

On to SLSFSCSVKV, for which the amyloid nucleation score is -0.149 ± 0.54.

For the substance MCDCLPPCDSGWNFFEWGWE, the amyloid nucleation score was -0.131 ± 0.69.

QRECWMYMMFMGYHLLEAQV displayed an amyloid nucleation score of 0.215 ± 1.2.

For CGAELRIGGCSGPGGMFQTR, the amyloid nucleation score was determined as 0.031 ± 0.27.

As to LGWIDSYTYHWDTIHRKQFR, the amyloid nucleation score was found to be 0.878 ± 0.33.

RTRLFHDLLLCAAHIRLRIR registered an amyloid nucleation score of 0.133 ± 0.38.

MCDYFYNIVFVKCCALWCLD had an amyloid nucleation score of 4.01 ± 0.069.

Turning to VRFKGMWHKQ, the amyloid nucleation score was -1.04 ± 1.1.

The substance RVGKYDLKSRDLGVGVDGVG showed an amyloid nucleation score of 0.586 ± 0.29.

For the substance YLSYDT, the amyloid nucleation score is -0.411 ± 0.36.

SVQDFPDTSNNLASYVPSSW came in with an amyloid nucleation score of -0.292 ± 0.74.

With TETLADVLALERLPGCMKFI, the amyloid nucleation score was 0.259 ± 0.68.

As to ELKQIKVGRSLWRMVRRMGD, the amyloid nucleation score came out at 1.37 ± 0.36.

The substance VVIVGAGIPWILGESAVFRC gave an amyloid nucleation score of 0.218 ± 0.36.

In turn, TVFDSLC registered an amyloid nucleation score of 0.372 ± 1.2.

As for WLLISSALIIYVRHGLIRSM, the amyloid nucleation score was -0.455 ± 0.81.

Substance GQPVFSLDCIYYLLYCFDAT displayed an amyloid nucleation score of 0.595 ± 0.6.

Regarding FWSLRMLMLADSSDKCVDYC, the amyloid nucleation score entry was “inactive”.

Substance VRISVCNYWFMVVGMAF had an amyloid nucleation score of 0.251 ± 0.31.

MTWNNWCSMRLACIS registered an amyloid nucleation score of 3.9 ± 0.074.

The substance NWVGGYTEIALLA displayed an amyloid nucleation score of -0.344 ± 0.78.

Turning to KCDRHLKSYWSKELHYYYNF, the amyloid nucleation score is -0.894 ± 0.38.

The substance FTYSLFCAYI displayed an amyloid nucleation score of 1.18 ± 0.66.

Substance VWDRWDSGHVCYSNMAVWNV displayed an amyloid nucleation score of 0.536 ± 0.36.

Take RYWLYVKFGWYLTDGFYSGS: the amyloid nucleation score was found to be 0.665 ± 0.29.

As to WGYNRLNDDELLIMSKFLRQ, the amyloid nucleation score was 1 ± 0.48.

For the substance VNNFIDCSSFCVYYLFKPGR, the amyloid nucleation score worked out at 7.671 ± 0.051.

In turn, ENYTCRTWAPLSGPRIWVGS displayed an amyloid nucleation score of 0.661 ± 0.77.

Substance NFLPVLVCQPLSWLLIPLLY gave an amyloid nucleation score of 0.309 ± 0.31.

In the case of WRESSGTNLSAFVPKDM, the amyloid nucleation score is -0.675 ± 0.81.

FFFALFFQRSTTRGWLSGQL: the amyloid nucleation score came to 0.91 ± 0.62.

As to IRRSHSEVPVVA, the amyloid nucleation score was determined as 0.22 ± 0.37.

As to TWGSGY, the amyloid nucleation score was -0.797 ± 0.93.

CLFFLPQGLKRYE yielded an amyloid nucleation score of 0.015 ± 0.53.

FGHYALRANILLTPITKGMS: the amyloid nucleation score came out at 0.892 ± 0.56.

Regarding FELGLNCCFLGLVVYAQVNA, the amyloid nucleation score result is “inactive”.

Regarding LGALIYNSAFN, the amyloid nucleation score result is “inactive”.

As for SCPWLDSSLCFMNVGVLIYK, the amyloid nucleation score stood at 3.37 ± 0.062.

In turn, LCDFVLNIEREVNVYSFIKL registered an amyloid nucleation score of 2.34 ± 0.13.

In turn, AHGMYAEGVTWSALVSSRCE displayed an amyloid nucleation score of 2.56 ± 0.11.

KLHNILLWNCLVFLCVMYVW: the amyloid nucleation score result is “inactive”.

For IMLQCYIVFCFRGRSLIRKA, the amyloid nucleation score was -0.524 ± 0.36.

Regarding SDIMGTVLSYFGINLVYAPC, the amyloid nucleation score entry is “inactive”.

In the case of PSNLRDWHSSQFNREEEDAY, the amyloid nucleation score is 0.467 ± 0.46.

As to IVGST, the amyloid nucleation score is -0.894 ± 0.47.

With GSSDPHVLVN, the amyloid nucleation score amounted to 0.341 ± 0.26.

Turning to VRFFM, the amyloid nucleation score is -0.422 ± 0.45.

In the case of HMGVRMNHFFTSDLSVVMWF, the amyloid nucleation score is 3.59 ± 0.12.

The substance MKLMKPGTLSSWCFFDSSGV yielded an amyloid nucleation score of 0.016 ± 0.51.

Substance GHSFGTVTDCVANQYNFLNI displayed an amyloid nucleation score of 2.37 ± 0.19.

ITYIRHYCKPVVL displayed an amyloid nucleation score of 5.65 ± 0.11.

With YYYGKVA, the amyloid nucleation score was 0.227 ± 0.57.

Consider ESIFLRRTVALHRKVCLIDW, for which the amyloid nucleation score worked out at 0.783 ± 0.36.

In turn, QLFMHPRGIMKGLF gave an amyloid nucleation score of 0.581 ± 0.52.

As for IPPCWLTGLFNQYMNWTRS, the amyloid nucleation score is -0.134 ± 0.31.

KVFRLILGGVSNKYT: the amyloid nucleation score worked out at 0.228 ± 0.64.

Substance EDSSTSLLVGMELKRLTVSF displayed an amyloid nucleation score of 0.258 ± 0.35.

Turning to AVASMWPRGLALSRLVSLNA, the amyloid nucleation score amounted to 0.05 ± 0.47.

Regarding FTFSTGLLFYMFLYGWVH, the amyloid nucleation score was -0.62 ± 0.34.

The substance LGFLRLFKKYVFYACCDVYS yielded an amyloid nucleation score of -0.175 ± 0.84.

As to CPVRSRIVVRCLYFSHMRST, the amyloid nucleation score was 0.263 ± 1.1.

Consider CSYSLSRFVLIHDRIVNMVT, for which the amyloid nucleation score is 1.35 ± 0.4.

With GDSMV, the amyloid nucleation score is -0.606 ± 0.4.

Regarding HMRYWLLQYGVILAQG, the amyloid nucleation score came out at 0.71 ± 0.42.

Regarding GGWDAGGGHAIRRIVECMVR, the amyloid nucleation score came to 0.601 ± 1.1.

Turning to LRTVPIALIRNMLPVNQESR, the amyloid nucleation score is 0.479 ± 0.53.

Consider LVVIVTPWKYSEP, for which the amyloid nucleation score was found to be 6.58 ± 0.086.

RYTEAASICRLVLGGQGVRI gave an amyloid nucleation score of -0.155 ± 0.96.

FTVGYGSYGLT: the amyloid nucleation score was 0.306 ± 0.54.

With WKFLFVVFIYSNYVVGLLDN, the amyloid nucleation score was -0.915 ± 0.67.

Substance LDFNLICLYFLM showed an amyloid nucleation score of 5.37 ± 0.072.

The substance MGPMCSQPLHVPSMVSMVTL yielded an amyloid nucleation score of 0.735 ± 0.35.

In turn, SWDEAVSWHSRSVVSAGGVA returned an amyloid nucleation score of -0.813 ± 1.3.

In the case of VITGYVCMDSVQFIWYVVWV, the amyloid nucleation score was -0.638 ± 1.

In the case of DTNVVWYYLSWDSPGNGDWK, the amyloid nucleation score entry is “inactive”.

In turn, EVRTEMIHCNLLTMRFCVLA yielded an amyloid nucleation score of 0.047 ± 0.64.

For the substance SVLVWADLCHDTEA, the amyloid nucleation score worked out at 0.42 ± 0.84.

For GNWASIWPLGFELLSYICQE, the amyloid nucleation score was -0.866 ± 0.49.

For AAGRMIRIMVTGVRLDKDKD, the amyloid nucleation score was -0.257 ± 1.7.

Turning to LFLGGVIVHSQLCMTVGCCF, the amyloid nucleation score is 6.54 ± 0.079.

LIIVEIMLDDVSVVSFRVIH registered an amyloid nucleation score of 0.195 ± 0.6.

In turn, KVWSGCSAPQ came in with an amyloid nucleation score of 2.09 ± 0.43.

In the case of RLMDTYAEAHTQDRDMIRDV, the amyloid nucleation score worked out at 0.286 ± 0.49.

Take EYNSFWTVVSMILTVKWLSG: the amyloid nucleation score was 0.502 ± 0.24.

YGTNKISVALWS came in with an amyloid nucleation score of -0.054 ± 0.79.

WNSLSWRVRMRGDNQYRRGR gave an amyloid nucleation score of 0.675 ± 1.

For DSASGNILYIRKLVI, the amyloid nucleation score was 1.84 ± 0.13.
